Test results published in the supplement of paper PMC10567573.

B1: ZNF649 (parent)
chain: LTEHKRIHTGKKPHVCSLCGKAFY
B2: TMEM175 (parent)
chain: ALLHQAETLQPSVWFGGREHVLMF

Variants of: B1
Experiment: protein stability index of a GFP-peptide fusion (GPS, HEK-293T) (PSI 1-6); higher = more stable
Details: c terminus: a fixed tail appended
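Note: lentivirally expressed fusions sorted by FACS into six bins by GFP to DsRed ratio, PSI derived from sequencing read proportions per bin multiplied by bin number.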

| Variant | protein stability index |
| --- | --- |
| T2F | 1.7 |
| T2K | 2.26 |
| T2Q | 2.58 |
| T2G | 2.25 |
| T2E | 3.01 |
| T2P | 2.32 |
| T2V | 2.27 |
| T2A | 2.57 |
| T2D | 3.12 |
| T2H | 2.46 |
| T2C | 3.94 |
| T2M | 2.16 |
| T2I | 2.04 |
| T2W | 2 |
| T2R | 2.78 |
| T2Y | 2.31 |
| T2L | 2.09 |
| T2S | 3 |
| T2N | 2.32 |
| E3D | 2.71 |
| E3K | 2.93 |
| E3G | 1.79 |

| Variant | protein stability index |
| --- | --- |
| E3C | 2.38 |
| E3P | 2.45 |
| E3M | 1.89 |
| E3R | 1.86 |
| E3T | 1.67 |
| E3H | 1.68 |
| E3W | 1.71 |
| E3N | 2.22 |
| E3L | 1.15 |
| E3A | 2.47 |
| E3V | 2.23 |
| E3Y | 2.89 |
| E3Q | 2.32 |
| E3F | 2.31 |
| E3S | 2.59 |
| E3I | 1.96 |
| L1I | 2.18 |
| L1P | 3.05 |
| L1M | 2.3 |
| L1Q | 3.02 |
| L1E | 2.87 |
| L1R | 3.27 |

| Variant | protein stability index |
| --- | --- |
| L1F | 2.18 |
| L1G | 3.19 |
| L1D | 3.45 |
| L1Y | 3.44 |
| L1V | 2.57 |
| L1H | 2.97 |
| L1W | 2.17 |
| L1C | 3.22 |
| L1T | 2.58 |
| L1A | 3.24 |
| L1K | 3.22 |
| L1S | 2.81 |
| L1N | 2.81 |
| H4I | 2.19 |
| H4C | 2.78 |
| H4L | 2.11 |
| H4G | 2.4 |
| H4A | 2.22 |
| H4D | 2.9 |
| H4E | 3.02 |
| H4F | 2.33 |
| H4K | 2.28 |

Variants of: B2
Experiment: as above
Details: c terminus: a fixed tail appended

| Variant | protein stability index |
| --- | --- |
| S12N | 1 |
| S12V | 3.21 |
| S12E | 2.31 |
| S12P | 4.3 |
| S12M | 1.75 |
| S12T | 2.65 |
| S12W | 2.82 |
| S12I | 3.85 |
| S12H | 1.15 |
| S12Q | 1.82 |
| H20T | 3.65 |
| H20P | 3.07 |
| H20N | 2.48 |
| H20Q | 1.44 |
| H20S | 2.21 |
| H20I | 2.97 |
| H20R | 4.2 |
| H20E | 1.6 |
| H20D | 1.29 |
| H20G | 1.74 |
| H20M | 3.07 |
| P11A | 1.78 |
| P11D | 2.79 |
| P11R | 4.75 |
| P11H | 1.77 |

| Variant | protein stability index |
| --- | --- |
| P11G | 1.24 |
| P11Q | 1.38 |
| P11L | 1.82 |
| P11K | 2.59 |
| Q5E | 1.07 |
| Q5L | 3.8 |
| Q5C | 1.99 |
| Q5N | 2.68 |
| Q5H | 2.37 |
| Q5F | 1.43 |
| Q5P | 2.78 |
| Q5M | 3.42 |
| Q5T | 2.94 |
| Q5D | 2.03 |
| Q5S | 2.72 |
| Q5V | 3.06 |
| Q5R | 2.33 |
| V21N | 2.02 |
| V21I | 1.53 |
| V21W | 1.57 |
| V21A | 1.42 |
| V21L | 2.41 |
| V21C | 2.73 |
| V21G | 2.89 |
| V21P | 2.11 |

| Variant | protein stability index |
| --- | --- |
| V21Q | 1.69 |
| V21S | 1.52 |
| V21M | 2.55 |
| V21D | 1.77 |
| V21K | 2.1 |
| V21Y | 1.7 |
| V21R | 2.18 |
| V21E | 1.53 |
| V21H | 2.89 |
| G16L | 2.28 |
| G16K | 2.17 |
| G16D | 2.04 |
| G16T | 1.47 |
| G16S | 2.06 |
| G16Y | 3.05 |
| G16H | 2.1 |
| G16N | 2.41 |
| G16M | 2.69 |
| G16C | 2.98 |
| G16P | 1.14 |
| F15A | 1.88 |
| F15Y | 2.4 |
| F15M | 1.82 |
| F15N | 1.65 |
| F15T | 1.85 |

| Variant | protein stability index |
| --- | --- |
| F15H | 2.12 |
| F15G | 2.22 |
| F15R | 2.02 |
| F15D | 2.29 |
| F15C | 2.5 |
| F15S | 1.57 |
| F15Q | 1.27 |
| F15E | 1.57 |
| T8K | 3.25 |
| T8S | 1.65 |
| T8N | 1.63 |
| T8D | 1.83 |
| T8H | 2.95 |
| T8L | 4.17 |
| T8C | 2.94 |
| T8F | 3.68 |
| T8V | 1.01 |
| T8Y | 2.91 |
| T8R | 1.26 |
| T8E | 2.03 |
| T8W | 1.69 |
| F24N | 3.21 |
| F24Q | 2.4 |
| F24W | 2.13 |
| F24K | 2.5 |

| Variant | protein stability index |
| --- | --- |
| F24P | 1.54 |
| F24E | 2.15 |
| F24G | 1.47 |
| F24T | 2 |
| F24L | 2.21 |
| F24S | 2.56 |
| F24R | 2.56 |
| F24H | 2.15 |
| F24M | 3.11 |
| F24D | 2.69 |
| L22K | 1.94 |
| L22F | 2.44 |
| L22M | 2.03 |
| L22P | 2.05 |
| L22R | 1.93 |
| L22H | 2.68 |
| L22V | 3.06 |
| L22Q | 1.9 |
| L22Y | 2.94 |
| L22T | 1.78 |
| L22N | 2.19 |
| L22C | 3.13 |
| L22A | 1.1 |
| L22G | 1.77 |
| L22E | 2.09 |

| Variant | protein stability index |
| --- | --- |
| L22S | 2.06 |
| L9F | 2.49 |
| L9G | 2.85 |
| L9A | 2.42 |
| L9N | 1.97 |
| L9C | 3.64 |
| L9S | 1.36 |
| L9Q | 3.27 |
| L9P | 2.11 |
| L9E | 1.16 |
| L9R | 2.19 |
| L9W | 1.7 |
| E7N | 1.88 |
| E7M | 3.19 |
| E7P | 1.96 |
| E7D | 1 |
| E7G | 3.88 |
| E7H | 3 |
| E7K | 3.58 |
| E7Y | 1.78 |
| E7Q | 2.71 |
| E7F | 2.64 |
| E7S | 2.22 |
| E7W | 3.4 |
| V13Q | 3.1 |

| Variant | protein stability index |
| --- | --- |
| V13H | 2.22 |
| V13W | 2.36 |
| V13P | 2.16 |
| V13R | 2.02 |
| V13M | 2.46 |
| V13N | 2.28 |
| V13Y | 1.69 |
| V13I | 2.25 |
| V13C | 3.13 |
| V13S | 2.73 |
| V13L | 2.59 |
| V13A | 3.02 |
| V13E | 1.86 |
| V13D | 2.16 |
| A6D | 2.55 |
| A6H | 2.17 |
| A6Y | 2.91 |
| A6Q | 1.87 |
| A6S | 1.68 |
| A6P | 2.43 |
| A6E | 1.54 |
| A6K | 1.68 |
| A6F | 3.21 |
| A6C | 3.75 |
| A6T | 1.83 |

| Variant | protein stability index |
| --- | --- |
| E19L | 2.74 |
| E19S | 2.2 |
| E19H | 2.74 |
| E19P | 2.37 |
| E19Y | 1.81 |
| E19C | 3.88 |
| E19F | 1.97 |
| E19N | 1.42 |
| E19W | 2.92 |
| E19A | 2.27 |
| W14N | 1.3 |
| W14R | 2.65 |
| W14Q | 2.24 |
| W14A | 1.66 |
| W14S | 1.55 |
| W14L | 1.73 |
| W14E | 1.38 |
| W14H | 2.31 |
| W14D | 1.74 |
| W14Y | 2.11 |
| W14I | 2.22 |
| W14M | 2.08 |
| W14V | 1.91 |
| W14G | 2.64 |
| W14F | 2.48 |

| Variant | protein stability index |
| --- | --- |
| Q10S | 2.2 |
| Q10D | 2.35 |
| Q10P | 2.16 |
| Q10M | 1.96 |
| Q10W | 1.51 |
| Q10I | 2.49 |
| Q10V | 1.06 |
| Q10N | 3.13 |
| Q10R | 2.36 |
| Q10H | 1.99 |
| M23H | 2.39 |
| M23Q | 1.84 |
| M23R | 1.03 |
| M23P | 1.35 |
| M23G | 3.51 |
| M23L | 3.66 |
| M23E | 3.67 |
| M23K | 1.74 |
| M23F | 1.67 |
| M23A | 1.2 |
| M23D | 1.04 |
| M23V | 1.27 |
| M23N | 1.58 |
| M23I | 2.59 |
| H4Y | 2.17 |

| Variant | protein stability index |
| --- | --- |
| H4S | 1.99 |
| H4G | 1.75 |
| H4W | 3.3 |
| H4N | 2.84 |
| H4Q | 1.73 |
| H4C | 3.01 |
| H4E | 1.56 |
| H4D | 1.89 |
| H4P | 1.41 |
| H4F | 3.14 |
| H4K | 1.52 |
| R18L | 3.03 |
| R18E | 1.76 |
| R18I | 3.13 |
| R18D | 1.93 |
| R18M | 2.03 |
| R18P | 1.71 |
| R18H | 2.17 |
| R18K | 3.39 |
| R18N | 3.11 |
| R18C | 3.1 |
| R18G | 2.08 |
| R18W | 3.12 |
| R18S | 1.15 |
| R18V | 1.44 |

| Variant | protein stability index |
| --- | --- |
| R18F | 2.29 |
| R18T | 2.46 |
| R18Q | 2.33 |
| R18A | 2.59 |
| G17V | 2.62 |
| G17I | 2.68 |
| G17H | 2.45 |
| G17P | 1.05 |
| G17D | 1.27 |
| G17T | 2.68 |
| G17N | 2.51 |
| G17A | 3.03 |
| G17E | 1 |
| G17W | 1.67 |
| G17R | 3.53 |
| G17Y | 1.58 |
| G17Q | 1.4 |
| G17K | 1.66 |
